For series [1], the target named is scRPA70A (DNA-binding domain A of RPA70) (Saccharomyces cerevisiae, UniProt P22336 181-294). Nature of the series: NMR chemical shift perturbation.
For series [2], the target named is hRPA70A (DNA-binding domain A of RPA70) (human, UniProt P27694 181-290). Nature of the series: NMR chemical shift perturbation.
Sequence of hRPA70A (DNA-binding domain A of RPA70) (P27694 181-290): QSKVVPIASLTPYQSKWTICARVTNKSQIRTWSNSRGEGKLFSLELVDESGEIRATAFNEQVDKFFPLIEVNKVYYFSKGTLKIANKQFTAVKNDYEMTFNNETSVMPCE

Sequence of scRPA70A (DNA-binding domain A of RPA70) (P22336 181-294): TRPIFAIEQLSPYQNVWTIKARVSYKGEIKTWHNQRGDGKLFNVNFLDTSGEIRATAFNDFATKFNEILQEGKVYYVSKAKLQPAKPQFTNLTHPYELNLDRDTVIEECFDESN

GCGATTGCG (ssDNA) [TT-10]: the binding result in series [1] and in series [2] was “binds” throughout.

For the origin of these results see paper PMC1180672.
